{
  "source": "patent US12325866B2",
  "about": "“Systems and methods for growing cells in vitro” (Yissum Research Development Company of the Hebrew …, priority 2016, dated 2025)",
  "molecules": {"B1": {"name": "EGF: epidermal growth factor (protein, UniProt P01133 23-1207, looked up)", "Pro-epidermal growth factor": "PQHWSCPEGTLAGNGNSTCVGPAPFLIFSHGNSIFRIDTEGTNYEQLVVDAGVSVIMDFHYNEKRIYWVDLERQLLQRVFLNGSRQERVCNIEKNVSGMAINWINEEVIWSNQQEGIITVTDMKGNNSHILLSALKYPANVAVDPVERFIFWSSEVAGSLYRADLDGVGVKALLETSEKITAVSLDVLDKRLFWIQYNREGSNSLICSCDYDGGSVHISKHPTQHNLFAMSLFGDRIFYSTWKMKTIWIANKHTGKDMVRINLHSSFVPLGELKVVHPLAQPKAEDDTWEPEQKLCKLRKGNCSSTVCGQDLQSHLCMCAEGYALSRDRKYCEDVNECAFWNHGCTLGCKNTPGSYYCTCPVGFVLLPDGKRCHQLVSCPRNVSECSHDCVLTSEGPLCFCPEGSVLERDGKTCSGCSSPDNGGCSQLCVPLSPVSWECDCFPGYDLQLDEKSCAASGPQPFLLFANSQDIRHMHFDGTDYGTLLSQQMGMVYALDHDPVENKIYFAHTALKWIERANMDGSQRERLIEEGVDVPEGLAVDWIGRRFYWTDRGKSLIGRSDLNGKRSKIITKENISQPRGIAVHPMAKRLFWTDTGINPRIESSSLQGLGRLVIASSDLIWPSGITIDFLTDKLYWCDAKQSVIEMANLDGSKRRRLTQNDVGHPFAVAVFEDYVWFSDWAMPSVMRVNKRTGKDRVRLQGSMLKPSSLVVVHPLAKPGADPCLYQNGGCEHICKKRLGTAWCSCREGFMKASDGKTCLALDGHQLLAGGEVDLKNQVTPLDILSKTRVSEDNITESQHMLVAEIMVSDQDDCAPVGCSMYARCISEGEDATCQCLKGFAGDGKLCSDIDECEMGVPVCPPASSKCINTEGGYVCRCSEGYQGDGIHCLDIDECQLGEHSCGENASCTNTEGGYTCMCAGRLSEPGLICPDSTPPPHLREDDHHYSVRNSDSECPLSHDGYCLHDGVCMYIEALDKYACNCVVGYIGERCQYRDLKWWELRHAGHGQQQKVIVVAVCVVVLVMLLLLSLWGAHYYRTQKLLSKNPKNPYEESSRDVRSRRPADTEDGMSSCPQPWFVVIKEHQDLKNGGQPVAGEDGQAADGSMQPTSWRQEPQLCGMGTEQGCWIPVSSDKGSCPQVMERSFHMPSYGTQTLEGGVEKPHSLLSANPLWQQRALDPPHQMELTQ", "modifications": "Pro-epidermal growth factor"}},
  "key": {"[1]": {"tested_on": "primary chicken embryonic fibroblasts (CEF)", "test": "Proliferation of primary CEF in serum-free media / with supplements", "format": "cell-based", "details": "serum-free medium, or minimal medium plus supplement (EGF 5 ng/ml, PGE2 0.01 μM, GH 10 ng/ml)", "method": "The CSIFs readily grow on tissue culture plastic in DMEM/F12 medium supplemented with 15% FBS, and 2 mM of […] (FIG. 2D). There are several serum-free medium formulations for the growth of human and mouse fibroblasts, including PCS-201-040 (ATCC) and […] To develop a serum-free medium that supports the culture of CEF and CS IF, the present inventor formulated a minimal medium composed of DMEM/F12 supplemented with 0.1 μM dexamethasone, 10 μg/ml insulin, 5.5 μg/ml transferrin, and 5 ng/ml selenium (ITS), 12 μM linoleic and 12 μM oleic acids, and 2 mM of […]. Cells were plated in FBS containing medium, and transferred to minimal medium after overnight attachment. Basal medium was supplemented with growth factors and hormones showing that while heparin and T3 had little effect of CSIF growth (data not shown), the addition of basic Fibroblast Growth Factor (bFGF, 10 ng/ml) was essential (FIGS. 3C and 3F), showing 20±2 hours doubling time (data not shown)."}, "CSIF": {"tested_on": "CSIF", "test": "Serum-free medium development: sulforhodamine B stain and protein content after 72 hours", "format": "cell-based, chicken", "details": "supplement added to minimal serum-free medium; bFGF 10 ng/ml, EGF 5 ng/ml, PGE2 0.01 μM, GH 10 ng/ml", "method": "FIGS. 3A-F depict the development and identification of serum-free medium for CSIF propagation. Shown are sulforhodamine B stain (FIGS. 3A-E) and protein content quantification (FIG. 3F) following 72 hours of culture with 15% serum (“FBS”), minimal serum-free medium (MIN) alone (FIG. 3B) or with 10 ng/ml basic Fibroblast Growth Factor (bFGF, FIG. 3C), 5 ng/ml Epidermal Growth Factor (EGF, FIG. 3D), 0.01 μM Prostaglandin E2 (PGE2, FIG. 3E), or 10 ng/ml Growth Hormone. Serum-free medium (SFM) contained MIN medium supplemented with bFGF (10 ng/ml), EGF (5 ng/ml), and PGE2 ([…]).\nTo develop a serum-free medium that supports the culture of CEF and CS IF, the present inventor formulated a minimal medium composed of DMEM/F12 supplemented with 0.1 μM dexamethasone, 10 μg/ml insulin, 5.5 μg/ml transferrin, and 5 ng/ml selenium (ITS), 12 μM linoleic and 12 μM oleic acids, and 2 mM of L-Analyl-L-Glutamine. Cells were plated in FBS containing medium, and transferred to minimal medium after overnight attachment. Basal medium was supplemented with growth factors and hormones showing that while heparin and T3 had little effect of CSIF growth (data not shown), the addition of basic Fibroblast Growth Factor (bFGF, 10 ng/ml) was essential (FIGS. 3C and 3F), showing 20±2 hours doubling time (data not shown)."}},
  "data": [
    {"molecule": "B1", "values": [
      {"measurement": "Proliferation of primary CEF", "setting": "[1]", "value": "supported the proliferation"},
      {"measurement": "Effect on CSIF growth / proliferation", "setting": "CSIF", "value": "supported the proliferation"}
    ]}
  ]
}
